Experimental data taken from publication PMC6484134 (The Journal of Biological Chemistry, 2019).

Key:
[1] = target: T1, Cul3N (human Cul3 N-terminal domain, residues 1–388, I342R L346D) (human, UniProt Q13618 1-388, I342R | L346D); assay: ITC; 25 °C; 20 mM HEPES, 200 mM NaCl, 1 mM DTT; […] (70–[…]) […]; settings: both partners purified
T1 construct: also called Cul3–NTD

[2] = target: T2, Cul3NΔ22 (human Cul3 N-terminal domain, residues 23–388, I342R L346D) (human, UniProt Q13618 23-388, I342R | L346D); assay: as above; settings: both partners purified
T2 construct: also called Cul3–NTD; Cu3NΔ22
T2 sequence (Q13618 23-388 I342R/L346D): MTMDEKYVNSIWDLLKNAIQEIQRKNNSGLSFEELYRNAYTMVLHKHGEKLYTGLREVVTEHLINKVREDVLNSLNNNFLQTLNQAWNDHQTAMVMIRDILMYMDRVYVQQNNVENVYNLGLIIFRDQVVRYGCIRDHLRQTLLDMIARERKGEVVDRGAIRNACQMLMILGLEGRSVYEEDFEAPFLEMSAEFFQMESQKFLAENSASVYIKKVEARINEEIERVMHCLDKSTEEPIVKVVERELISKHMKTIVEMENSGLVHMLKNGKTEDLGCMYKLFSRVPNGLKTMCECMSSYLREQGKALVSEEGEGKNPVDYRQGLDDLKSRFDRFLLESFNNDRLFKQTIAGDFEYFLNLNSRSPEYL

[3] = target: the molecule itself; assay: […]; room temperature; […]; 20 mM HEPES, 150 mM NaCl, 2 mM DTT; […]

T1 sequence (Q13618 1-388 I342R/L346D): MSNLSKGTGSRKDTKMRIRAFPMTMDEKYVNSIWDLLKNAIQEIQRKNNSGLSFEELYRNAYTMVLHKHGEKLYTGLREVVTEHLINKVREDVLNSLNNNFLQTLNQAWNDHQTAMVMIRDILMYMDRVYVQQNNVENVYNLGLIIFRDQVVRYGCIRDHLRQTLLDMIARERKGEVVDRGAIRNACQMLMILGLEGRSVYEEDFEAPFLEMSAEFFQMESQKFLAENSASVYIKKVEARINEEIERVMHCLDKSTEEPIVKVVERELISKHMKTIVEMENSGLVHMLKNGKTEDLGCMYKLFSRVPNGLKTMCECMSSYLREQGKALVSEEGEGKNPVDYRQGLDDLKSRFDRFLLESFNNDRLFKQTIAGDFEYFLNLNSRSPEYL

B1: A55BB (A55 BTB-BACK domain, residues 1–250), wild type (domain or fragment)
chain: MNNSSELIAVINGFRNSGRFCDISIVINDERINAHKLILSGASEYFSILFSNNFIDSNEYEVNLSHLDYQSVNDLIDYIYGIPLSLTNDNVKYILSTADFLQIGSAITECENYILKNLCSKNCIDFYIYADKYNNKKIESASFNTILQNILRLINDENFKYLTEESMIKILSDDMLNIKNEDFAPLILIKWLESTQQSCTVELLRCLRISLLSPQVIKSLYSHQLVSSIYECITFLNNIAFLDESFPRYH
With B1 the Kd [1] was less than 1 nM, the dH [1] was -17.7 kcal/mol and the Kd [2] was 5.3 nM. The dH [2] was -9.9 kcal/mol and the “stoichiometry N” value [3] was 2.
